Reference: paper PMC10688287, “RNA binding protein AUF1/HNRNPD regulates nuclear export, stability and translation of SNCA transcripts” (Open Biology, 2023)

Target: T1, CNOT1 (UniProt A5YKK6 1-2376)
T1 construct: CNOT1, scaffold subunit of the CCR4-NOT deadenylase complex; Endogenous human CNOT1 of the SK-N-SH cells is precipitated by the anti-CNOT1 antibody as well; source: SK-N-SH, transfected (CNOT1 plasmid), in lysate
Experiment: co-IP; anti-CNOT1 antibody or control IgG, protein A/G magnetic beads; lysates of SK-N-SH cells 48 h after co-transfection with CNOT1 and either empty or AUF1-expressing plasmid; PLB lysis buffer (10 mM HEPES pH 7.0, 100 mM KCl, 5 mM MgCl2, 0.5% NP-40); washes in NT2 buffer with 250 mM NaCl; Western blot
Conditions: partners not purified

T1 sequence (A5YKK6 whole entry): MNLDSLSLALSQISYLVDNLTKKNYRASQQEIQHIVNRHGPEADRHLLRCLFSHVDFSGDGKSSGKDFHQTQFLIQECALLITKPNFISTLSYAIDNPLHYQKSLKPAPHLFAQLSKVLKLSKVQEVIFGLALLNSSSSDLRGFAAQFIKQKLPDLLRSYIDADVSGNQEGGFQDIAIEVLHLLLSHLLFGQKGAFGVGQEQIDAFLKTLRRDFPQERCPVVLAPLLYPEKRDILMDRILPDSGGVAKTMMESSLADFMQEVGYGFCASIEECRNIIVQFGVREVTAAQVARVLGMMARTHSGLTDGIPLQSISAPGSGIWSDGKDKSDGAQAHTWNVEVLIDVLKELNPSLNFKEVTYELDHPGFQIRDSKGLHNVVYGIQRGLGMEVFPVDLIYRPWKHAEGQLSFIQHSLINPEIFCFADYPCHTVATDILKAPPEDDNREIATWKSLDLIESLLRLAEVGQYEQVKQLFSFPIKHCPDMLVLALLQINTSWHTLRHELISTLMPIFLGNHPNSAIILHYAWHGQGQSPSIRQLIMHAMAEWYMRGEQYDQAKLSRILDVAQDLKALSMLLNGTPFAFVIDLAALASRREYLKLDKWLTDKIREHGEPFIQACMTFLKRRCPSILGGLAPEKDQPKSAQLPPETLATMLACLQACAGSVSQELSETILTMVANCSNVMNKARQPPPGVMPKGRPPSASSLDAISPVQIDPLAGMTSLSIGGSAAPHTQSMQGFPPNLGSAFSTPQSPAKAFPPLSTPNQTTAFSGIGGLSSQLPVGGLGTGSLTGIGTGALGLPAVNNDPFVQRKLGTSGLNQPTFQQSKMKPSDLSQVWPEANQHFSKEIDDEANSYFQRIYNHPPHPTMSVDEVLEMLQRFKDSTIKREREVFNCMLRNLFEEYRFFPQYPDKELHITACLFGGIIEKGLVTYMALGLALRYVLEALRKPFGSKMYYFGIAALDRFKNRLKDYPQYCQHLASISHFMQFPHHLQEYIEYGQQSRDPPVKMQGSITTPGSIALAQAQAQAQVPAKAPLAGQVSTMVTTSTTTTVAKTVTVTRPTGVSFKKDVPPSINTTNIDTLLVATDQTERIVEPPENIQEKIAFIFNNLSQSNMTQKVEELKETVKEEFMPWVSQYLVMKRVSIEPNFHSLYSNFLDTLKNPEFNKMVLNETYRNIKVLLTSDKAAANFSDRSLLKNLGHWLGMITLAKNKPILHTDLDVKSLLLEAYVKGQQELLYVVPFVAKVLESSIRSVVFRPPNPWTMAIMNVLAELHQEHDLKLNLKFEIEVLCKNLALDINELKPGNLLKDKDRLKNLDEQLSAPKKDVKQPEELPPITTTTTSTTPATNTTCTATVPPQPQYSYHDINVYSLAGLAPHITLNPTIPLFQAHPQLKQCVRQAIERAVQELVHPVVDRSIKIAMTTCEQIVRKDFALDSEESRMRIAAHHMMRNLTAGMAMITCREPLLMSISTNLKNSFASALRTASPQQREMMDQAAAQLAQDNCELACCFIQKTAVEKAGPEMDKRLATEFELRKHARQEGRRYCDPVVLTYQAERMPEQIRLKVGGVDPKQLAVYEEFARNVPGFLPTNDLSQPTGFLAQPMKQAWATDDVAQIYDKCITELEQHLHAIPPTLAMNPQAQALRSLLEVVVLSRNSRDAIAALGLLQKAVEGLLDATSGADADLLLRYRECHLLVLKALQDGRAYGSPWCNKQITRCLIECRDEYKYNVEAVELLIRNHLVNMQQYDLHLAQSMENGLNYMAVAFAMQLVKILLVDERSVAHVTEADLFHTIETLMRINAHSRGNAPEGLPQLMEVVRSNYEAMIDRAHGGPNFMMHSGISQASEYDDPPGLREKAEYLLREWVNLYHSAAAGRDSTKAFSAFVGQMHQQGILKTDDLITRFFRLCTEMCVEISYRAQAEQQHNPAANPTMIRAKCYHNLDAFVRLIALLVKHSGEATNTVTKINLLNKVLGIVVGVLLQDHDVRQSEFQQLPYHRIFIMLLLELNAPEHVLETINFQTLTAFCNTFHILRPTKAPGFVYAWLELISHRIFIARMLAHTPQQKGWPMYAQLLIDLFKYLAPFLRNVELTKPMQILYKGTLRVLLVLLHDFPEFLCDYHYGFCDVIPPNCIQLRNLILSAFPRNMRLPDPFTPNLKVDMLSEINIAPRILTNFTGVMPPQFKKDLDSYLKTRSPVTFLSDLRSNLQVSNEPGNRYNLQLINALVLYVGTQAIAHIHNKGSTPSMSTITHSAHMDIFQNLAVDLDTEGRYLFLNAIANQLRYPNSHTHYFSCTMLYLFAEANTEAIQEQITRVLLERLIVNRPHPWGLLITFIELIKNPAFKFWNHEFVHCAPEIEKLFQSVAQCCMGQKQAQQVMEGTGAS

B1: AUF1 (heterogeneous nuclear ribonucleoprotein D, HNRNPD), 42 kDa protein (natural protein, human, UniProt Q14103-2 1-336, looked up)
chain: MSEEQFGGDGAAAAATAAVGGSAGEQEGAMVAATQGAAAAAGSGAGTGGGTASGGTEGGSAESEGAKIDASKNEEDEGKMFIGGLSWDTTKKDLKDYFSKFGEVVDCTLKLDPITGRSRGFGFVLFKESESVDKVMDQKEHKLNGKVIDPKRAKAMKTKEPVKKIFVGGLSPDTPEEKIREYFGGFGEVESIELPMDNKTNKRRGFCFITFKEEEPVKKIMEKKYHNVGLSKCEIKVAMSKEQYQQQQQWGSRGGFAGRARGRGGGPSQNWNQGYSNYWNQGYGNYGYNSQGYGGYGGYDYTGYNNYYGYGDYSNQQSGYGKVSRRGGHQNSYKPY
notes: human AUF1/HNRNPD CDS encoding the 42 kDa protein (p42 isoform), amplified from SK-N-SH cDNA and cloned between KpnI and NotI of pENTR-GD; The co-IP was done in cells transfected with empty or AUF1-expressing plasmid; the anti-AUF1 blot also detects the endogenous AUF1 isoforms (p37, p40, p42, p45) of SK-N-SH cells; also called p42; source: SK-N-SH, transfected (AUF1-expressing plasmid), in lysate
fold enrichment in the CNOT1 immunoprecipitate: 1.6 fold
